Laboratory results from publication PMC6491428.

Legend:
[1] = test system: TH3N2 (influenza A H3N2 target protein; protein identity not stated in the material) (Influenza A virus H3N2 (strain not stated)); assay: SPR
[2] = test system: TH1N1 (influenza A H1N1 target protein; protein identity not stated in the material) (Influenza A virus H1N1 (strain not stated)); assay: electrochemical DPV (Apta-DEPSOR)
[3] = test system: TH3N2 (influenza A H3N2 target protein; protein identity not stated in the material) (Influenza A virus H3N2 (strain not stated)); assay: electrochemical DPV (Apta-DEPSOR)
[4] = test system: TH1N1 (influenza A H1N1 target protein; protein identity not stated in the material) (Influenza A virus H1N1 (strain not stated)); assay: SPR

Row | Sequence | Kd [1] [nM] | binding signal (fold lower signal than with TH3N2) [2] | binding signal [3] | Kd [4] [nM] | binding signal [2] | binding signal (fold lower signal than with TH1N1) [3]
1 | AGCAGCACAGAGGTCAGATGCTAGCCGTGAGCGTGGTGAGCTCGGTTGACCCTATCGCTGCTACCGTGAA [Apt01>TH3N2] | 0.14 | 9 | 1.73 µA (Ipc) |  |  | 
2 | AGCAGCACAGAGGTCAGATGTCTGCAGCGTGCAGGGCTGTGTGCTTACCCCCTATCGCTGCTACCGTGAA [Apt04>TH3N2] | 0.088 |  | 1.61 µA (Ipc) |  |  | 
3 | AGCAGCACAGAGGTCAGATGGTGGTTGTTTTGGGCGAAGTGGCCATGGTCCCTATCGCTGCTACCGTGAA [Apt02>TH3N2] | 1.7 |  | 1.16 µA (Ipc) |  |  | 
4 | AGCAGCACAGAGGTCAGATGTAGGTCGTACTCTGGCGGCCTGTTTGGCCCTATCGCTGCTACCGTGAA [Apt03>TH1N1] |  |  |  | 0.082 | 3.37 µA (Ipc) | 5
5 | AGCAGCACAGAGGTCAGATGATTGGATCGTGACGGTTGTTGGGGCTCCGCCTATCGCTGCTACCGTGAA [Apt01>TH1N1] |  |  |  | 35000 | 0.85 µA (Ipc) | 
6 | AGCAGCACAGAGGTCAGATGAGGTGATGAGATTTGTACCTCTCGCGGCACCCTATCGCTGCTACCGTGAA [Apt02>TH1N1] |  |  |  | 57 | 2.26 µA (Ipc) | 
7 | AGCAGCACAGAGGTCAGATGGCGCGGGCGGTGCGTCGGTGTCCCGCTGGCCTATCGCTGCTACCGTGAA [Apt03>TH3N2] | 0.6 |  | 1.11 µA (Ipc) |  |  | 
8 | AGCAGCACAGAGGTCAGATGTGTGCGTGCTTGGGGTATAGTCGGGTCGGCCTATCGCTGCTACCGTGAA [Apt04>TH1N1] |  |  |  | 1.6 | 1.23 µA (Ipc) | 
